Experimental data taken from patent publication US9895420.

Target: chimeric-IL-1Ra (IL-1beta propeptide residues 1-120, HindIII-derived Lys-Leu linker, mature IL-1Ra)

B1: neutrophil elastase (Athens Research & Technology) (protein)
chain: IVGGRRARPHAWPFMVSLQLRGGHFCGATLIAPNFVMSAAHCVANVNVRAVRVVLGAHNLSRREPTRQVFAVQRIFENGYDPVNLLNDIVILQLNGSATINANVQVAQLPAQGRRLGNGVQCLAMGWGLLGRNRGIASVLQELNVTVVTSLCRRSNVCTLVRGRQAGVCFGDSGSPLVCNGLIHGIASFVRGGCASGLYPDAFAPVAQFVNWIDSIIQ
- cleavage of chimeric-IL-1Ra, Western blot with anti-IL-1Ra antibody: chimeric-IL-1Ra is cleaved to form a ˜20 kDa fragment, comparable in size to IL-1Ra
